Laboratory results taken from PMC8184781 (2021).
Ends that are not written are not given here.

Target: T1, RDM15 Tudor domain (residues 598-662), wild type (Arabidopsis thaliana)
T1 chain: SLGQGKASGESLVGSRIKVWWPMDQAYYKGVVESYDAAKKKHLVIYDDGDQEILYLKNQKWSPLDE
Test: ITC

Kd: 1470 nM
Binder: ARTK(Me)QTARKSTGGKA [H3(1-15) K4me1 peptide]
